Positions count from the first letter of the chain named. Values belong to the binder of their own block, whether it stands above or below them.
Tests used:
[1] = biological target: T1, GST-human NOGO-A56 (human, UniProt Q9NQC3 586-785); assay: SPR (Biacore 3000), GST-human NOGO-A56 amine-coupled to CM5 chip, antibody as analyte; mean (SD) of four experiments
T1 construct: also called hNOGO; recombinant human NOGO; not shown: Glutathione S-transferase (GST) tag encoded by vector pGEX-6P1, N-terminal to the NOGO-A fragment; the tag and linker se
T1 sequence: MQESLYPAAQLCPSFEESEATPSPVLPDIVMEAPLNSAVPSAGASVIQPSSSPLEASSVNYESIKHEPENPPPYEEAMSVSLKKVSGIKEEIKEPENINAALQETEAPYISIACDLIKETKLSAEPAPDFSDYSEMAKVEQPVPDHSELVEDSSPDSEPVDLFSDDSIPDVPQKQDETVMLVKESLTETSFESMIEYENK
Procedure: (§1) The binding kinetics of the anti-NOGO monoclonal antibody (mAb) to recombinantly expressed human NOGO-A (GST-human NOGO-A56) was analysed using the Biacore3000 biosensor. The hNOGO-A chip was prepared as follows:
(§2) hNOGO (GST-human NOGO-A56) was immobilised to a CM5 chip by primary amine coupling using the Biacore Wizard program designed for targeted immobilisation levels. The CM5 sensor surface was activated by passing a solution of 50 mM N-hydroxy-succinimide (NHS) and 200 mM N-ethyl-N′-dimethylaminopropyl […] (EDC). Then hNOGO in sodium acetate buffer, pH5.0 or pH 4.5, was passed over the chip and immobilised. After immobilisation was complete any still activated esters were blocked by an injection of 1M ethanolamine hydrochloride, pH8.5.
(§3) The anti-NOGO mAbs were diluted down in HBS-EP (10 mM HEPES, pH 7.4, 150 mM NaCl, 3 mM EDTA, and 0.005% P-20 surfactant) and binding studies were carried out at range of defined antibody concentrations. All runs were referenced against a blanked sensor surface (one that had been activated and blocked as described earlier but had no addition of ligand). Analysis of binding was carried out using the BIAevaluation kinetic analysis software version 4.1. Biacore analysis of other antibodies of the invention essentially followed the same protocol as described herein.

[2] = biological target: T1, GST-human NOGO-A56; assay: SPR off-rate ranking (Biacore), CHO-K1 transfection supernatant over GST-human NOGO-A56 chip; mean (SD) of three experiments
Procedure: as §2
(§4) The hNOGO chip was prepared as for kinetic analysis. Cell supernatants where taken directly from transient transfections of CHO—K1 cells. These were passed directly over the sensor surface and the interaction measured. A mock transfected cell supernatant was used for double referencing to remove any artefacts due to the tissue culture media. All runs were referenced against a blanked sensor surface (one that had been activated and blocked as described earlier but had no addition of ligand). Analysis of binding was carried out using the BIAevaluation kinetic analysis software version 4.1.

[3] = biological target: T1, GST-human NOGO-A56; assay: SPR (Biacore 3000), GST-human NOGO-A56 on CM5 chip, antibody as analyte; single experiment
Procedure: as §1, §2, §3

[4] = biological target: T1, GST-human NOGO-A56; assay: SPR off-rate ranking (Biacore), CHO-K1 transfection supernatant over GST-human NOGO-A56 chip; single experiment
Procedure: as §2, §4

[5] = biological target: T1, GST-human NOGO-A56; assay: SPR (Biacore 3000), GST-human NOGO-A56 on CM5 chip, antibody as analyte; single experiment; remark: listed apart in the source
Procedure: as §1, §2, §3

[6] = biological target: T1, GST-human NOGO-A56; assay: SPR off-rate ranking (Biacore), CHO-K1 transfection supernatant over GST-human NOGO-A56 chip; mean (SD) of two experiments
Procedure: as §2, §4

[7] = biological target: T1, GST-human NOGO-A56; assay: SPR (Biacore 3000), GST-human NOGO-A56 on CM5 chip, antibody as analyte; mean (SD) of two experiments
Procedure: as §1, §2, §3

[8] = biological target: T1, GST-human NOGO-A56; assay: SPR (BiaCore kinetic analysis), told in the summary section

Kd [1]: 1.33 nM
koff [1]: 0.00552 s⁻¹
kon [1]: 4.18e+06 M⁻¹ s⁻¹
koff [2]: 0.00609 s⁻¹
B3: H16L18 (antibody, human IgG1, kappa, V domains shown)
VH: QVQLVQSGAEVKKPGASVKVSCKASGYTFTSYWMHWVKQRPGQGLEWIGNINPSNGGTNYNEKFKSKATLTVDKSTSTAYMELSSLRSEDTAVYYCELGQGYWGQGTLVTVSS
VL: DIVMTQDPLSNPVTLGQPVSISCRSSKSLLYKDGKTYLNWFLQRPGQSPQLLIYLMSTRASGVSDRFSGSGSGTDFTLKISRVEAEDVGVYYCQQLVEYPLTFGQGTKLEIKR
notes: Humanised 2A10; human gamma-1 mutated constant region, human kappa; also called H16L18 FL

koff [4]: 0.0058 s⁻¹
B4: H18L18 (antibody, human IgG1, kappa, V domains shown)
VH: B3 VH with K12V, V20L, T76S, T91S
VL: B3 VL
notes: Humanised 2A10; tested as CHO-K1 transfection supernatant; Human gamma-1 mutated constant region, human kappa

koff [4]: 0.00931 s⁻¹
B5: H17L13 (antibody, human IgG1, kappa)
heavy: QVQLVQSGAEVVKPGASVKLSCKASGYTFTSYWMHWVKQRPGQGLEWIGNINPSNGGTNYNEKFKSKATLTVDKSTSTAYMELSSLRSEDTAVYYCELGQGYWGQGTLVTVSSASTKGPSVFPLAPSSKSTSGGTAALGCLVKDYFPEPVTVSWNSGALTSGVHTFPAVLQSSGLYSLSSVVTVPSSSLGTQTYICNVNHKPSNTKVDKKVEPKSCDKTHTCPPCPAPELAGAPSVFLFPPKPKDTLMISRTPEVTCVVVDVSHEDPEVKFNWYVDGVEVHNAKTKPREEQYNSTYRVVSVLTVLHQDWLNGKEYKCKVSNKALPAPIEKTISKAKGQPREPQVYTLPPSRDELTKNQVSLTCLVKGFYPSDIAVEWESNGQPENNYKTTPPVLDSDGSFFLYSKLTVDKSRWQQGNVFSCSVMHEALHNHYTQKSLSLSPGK
light: DIVMTQSPLSLPVTLGQPASISCRSSKSLLYKDGKTYLNWFQQRPGQSPQLLIYLMSTRASGVPDRFSGGGSGTDFTLKISRVEAEDVGVYYCQQLVEYPLTFGQGTKLEIKRTVAAPSVFIFPPSDEQLKSGTASVVCLLNNFYPREAKVQWKVDNALQSGNSQESVTEQDSKDSTYSLSSTLTLSKADYEKHKVYACEVTHQGLSSPVTKSFNRGEC
notes: as for B4

Kd [1]: 1.62 nM
koff [1]: 0.00586 s⁻¹
kon [1]: 3.64e+06 M⁻¹ s⁻¹
koff [6]: 0.00687 s⁻¹
B9: H18L16 (antibody, human IgG1, kappa, V domains shown)
VH: B3 VH with K12V, V20L, T76S, T91S
VL: B3 VL with D7S, S64P, S70G
notes: Humanised 2A10; human gamma-1 mutated constant region, human kappa; also called H18L16 FL

koff [4]: 0.00907 s⁻¹
B11: H18L13 (antibody, human IgG1, kappa, V domains shown)
VH: B3 VH with K12V, V20L, T76S, T91S
VL: B3 VL with D7S, N11L, V19A, L42Q, S64P, S70G
notes: as for B4

Kd [7]: 0.995 nM
koff [7]: 0.00346 s⁻¹
kon [7]: 3.52e+06 M⁻¹ s⁻¹
Kd [1]: 1.41 nM
koff [1]: 0.00378 s⁻¹
kon [1]: 2.7e+06 M⁻¹ s⁻¹
Kd [3]: 1.6 nM
koff [3]: 0.00412 s⁻¹
kon [3]: 2.62e+06 M⁻¹ s⁻¹
koff [6]: 0.00376 s⁻¹
B13: HcLc (chimera of 2A10: murine 2A10 VH and VL with human IgG constant regions) (antibody, V domains shown)
VH: B3 VH with V5Q, S7P, A9T, V11L, K12V, V20L, T76S, E82Q, R87T, T91S
VL: B3 VL with M4I, P8E, L15S, Q17E, P18S, K79E, E84K, Q105A, I111L
notes: also called 2A10 chimeric antibody; the chimera

Kd [8]: ~1 nM
B14: murine monoclonal antibody 2A10 (antibody, V domains shown)
VH: QVQLQQPGTELVKPGASVKLSCKASGYTFTSYWMHWVKQRPGQGLEWIGNINPSNGGTNYNEKFKSKATLTVDKSSSTAYMQLSSLTSEDSAVYYCELGQGYWGQGTTLTVSS
VL: DIVITQDELSNPVTSGESVSISCRSSKSLLYKDGKTYLNWFLQRPGQSPQLLIYLMSTRASGVSDRFSGSGSGTDFTLEISRVKAEDVGVYYCQQLVEYPLTFGAGTKLELK
notes: Murine antibody; also called donor antibody

Continued, binder first:

B1: H1L11 (antibody, human IgG1, kappa, V domains shown)
VH: B3 VH with K38R, R40A, I48M, K67R, A68V, L70M, V72R, K74T, A79V
VL: B3 VL with M4I, D7S, N11L, V19A, L42Q, S64P, S70G
notes: human gamma-1 mutated constant region, human kappa
Kd [1]: 18.6 nM
koff [1]: 0.0314 s⁻¹
kon [1]: 1.73e+06 M⁻¹ s⁻¹
koff [2]: 0.0403 s⁻¹
koff [3]: 0.0284 s⁻¹
kon [3]: 1.33e+06 M⁻¹ s⁻¹

B2: H16L13 (antibody, human IgG1, kappa)
heavy: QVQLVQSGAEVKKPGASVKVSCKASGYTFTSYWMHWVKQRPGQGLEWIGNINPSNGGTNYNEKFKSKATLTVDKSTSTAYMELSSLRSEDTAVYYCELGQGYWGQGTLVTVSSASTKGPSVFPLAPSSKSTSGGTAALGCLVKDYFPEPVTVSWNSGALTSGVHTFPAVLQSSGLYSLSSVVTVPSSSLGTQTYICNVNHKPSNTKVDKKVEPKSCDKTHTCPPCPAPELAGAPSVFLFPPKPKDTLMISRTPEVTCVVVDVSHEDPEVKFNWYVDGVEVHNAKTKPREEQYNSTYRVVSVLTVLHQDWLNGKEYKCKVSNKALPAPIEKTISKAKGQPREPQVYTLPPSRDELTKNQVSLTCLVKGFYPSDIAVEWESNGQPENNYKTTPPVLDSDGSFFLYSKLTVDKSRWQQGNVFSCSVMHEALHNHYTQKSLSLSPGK
light: B5 light
notes: as for B4
koff [4]: 0.00907 s⁻¹

B6: H6L13 (antibody, human IgG1, kappa, V domains shown)
VH: B3 VH with K38R, R40A, K67R, L70M, V72R, K74T
VL: B3 VL with D7S, N11L, V19A, L42Q, S64P, S70G
notes: Humanised 2A10; human gamma-1 mutated constant region, human kappa; also called H6L13 FL
Kd [5]: 7.9 nM
koff [5]: 0.0233 s⁻¹
kon [5]: 2.95e+06 M⁻¹ s⁻¹
Kd [1]: 7.68 nM
koff [1]: 0.0137 s⁻¹
kon [1]: 1.82e+06 M⁻¹ s⁻¹
koff [2]: 0.0173 s⁻¹
Kd [3]: 7.3 nM
koff [3]: 0.013 s⁻¹
kon [3]: 1.77e+06 M⁻¹ s⁻¹

B7: H16L16 (antibody, human IgG1, kappa)
heavy: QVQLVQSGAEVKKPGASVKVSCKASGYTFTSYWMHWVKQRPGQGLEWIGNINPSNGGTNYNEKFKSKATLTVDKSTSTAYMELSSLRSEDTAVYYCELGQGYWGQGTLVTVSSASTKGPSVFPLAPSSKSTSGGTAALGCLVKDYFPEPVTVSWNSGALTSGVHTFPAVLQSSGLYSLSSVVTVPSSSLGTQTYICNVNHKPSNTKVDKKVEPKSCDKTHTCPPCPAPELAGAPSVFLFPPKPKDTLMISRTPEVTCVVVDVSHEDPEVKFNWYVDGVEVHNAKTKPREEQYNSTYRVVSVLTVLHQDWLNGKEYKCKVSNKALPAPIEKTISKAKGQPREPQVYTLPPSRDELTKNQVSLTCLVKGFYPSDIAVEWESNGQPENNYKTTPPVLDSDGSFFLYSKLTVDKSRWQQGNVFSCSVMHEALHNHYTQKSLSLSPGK
light: B5 light with L11N, A19V, Q42L
notes: Humanised 2A10; human gamma-1 mutated constant region, human kappa; also called H16L16 FL
Kd [1]: 1.26 nM
koff [1]: 0.00554 s⁻¹
kon [1]: 4.37e+06 M⁻¹ s⁻¹
koff [2]: 0.00664 s⁻¹
Kd [3]: 1 nM
koff [3]: 0.00569 s⁻¹
kon [3]: 5.47e+06 M⁻¹ s⁻¹

B8: H14L16 (antibody, human IgG1, kappa, V domains shown)
VH: B3 VH with K12V, V20L, R40A, K67R, V72R, K74T
VL: B3 VL with D7S, S64P, S70G
notes: Humanised 2A10; human gamma-1 mutated constant region, human kappa
koff [4]: 0.0089 s⁻¹
Kd [3]: 3.6 nM
koff [3]: 0.00739 s⁻¹
kon [3]: 2.05e+06 M⁻¹ s⁻¹

B10: H14L18 (antibody, human IgG1, kappa, V domains shown)
VH: B3 VH with K12V, V20L, R40A, K67R, V72R, K74T
VL: B3 VL
notes: as for B8
koff [4]: 0.00835 s⁻¹
Kd [3]: 3.6 nM
koff [3]: 0.00869 s⁻¹
kon [3]: 2.41e+06 M⁻¹ s⁻¹

B12: H15L18 (antibody, human IgG1, kappa, V domains shown)
VH: B3 VH with K12V, V20L, K74T, T76S, T91S
VL: B3 VL
notes: as for B4
koff [4]: 0.00594 s⁻¹

B15: H6Lc (antibody, human IgG1, kappa, V domains shown)
VH: B3 VH with K38R, R40A, K67R, L70M, V72R, K74T
VL: B3 VL with M4I, P8E, L15S, Q17E, P18S, K79E, E84K, Q105A, I111L
notes: Humanised heavy chain H6 paired with chimeric light chain Lc; For the light chain start see the note on HcLc
Kd [7]: 2.21 nM
koff [7]: 0.00284 s⁻¹
kon [7]: 2.17e+06 M⁻¹ s⁻¹

— US20110054149A1 (published 2011)
